Data taken from a protein production outcome set (Wang et al. 2014).

Assay: label from the status in PepcDB records

Sequence	protein production
MTTVDSPRDANGPPRFAASGFATPRRPDDTDDTGDADETAATVPHRTRALTTPPRRKTIAAPCIDARTRRDRPARRATHARRALADFRAPAPPVARGTTRNRARRYACPSVDAVARTAPSPHAHRAAPARRPPSSEGAIMSEAVRMERDTFGEIAVPAARLWGAQTQRSLQNFKISTEKQSPELIHALALIKRAAAAVNLELGVLAQDKANAIVAAADEIIAGRHADEFPLAVWQTGSGTQTNMNLNEVIANRASELLGGERGESRAVHPNDDVNRGQSSNDVFPTAMHIAAARAIVDHLLPALRTLRATLDAKAAAFADIVKIGRTHLQDATPLTLGQEFSGYVAQLDQGIRHVEAALPHLYELAQGGTAVGTGLNAHPKFAAGVAAEIGRLTGLPFVSAPNKFEVMAAADALVFAHGALKTVAASLMKIANDIRWLASGPRCGLGELSIPENEPGSSIMPGKVNPTQSEAVTMLCCQVFGNDVAVNFGGASGNFELNVFRPMIAHNVLQSVRLLADGAQGFNDHCAVGIEPNRARIDALLNESLMLVTALNPHIGYDKAAQIAKKAHKEGTTLKAAALALGYVTDAQFDEWVRPEHMVGNR	not failed
MSLSEPAWSLHSRLKEDTIDIGDLPLSKVLVIKDANYPWLLLVPRRPDAVEIIDLDEVQQAQLMTEISRVSRALKEITKCDKLNIAALGNLVPQLHVHIIARRTGDAAWPRPVWGVMQPLAHDATEVQNFISALRRKIWLGEGHHHHHH	not failed
TVVNDPSCESVVTTPQHSLRDANSPAGLLSIAEETLAEFLSKATGTAVDWVQMPGMKPGPDSVGIFAISQRCNGVAARACGLVSLEPMKIAEILKDRPSWFRDCRSLEVFTMFPAGNGGTIELVYMQTYAPTTLAPARDFWTLRYTTSLDNGSFVVCERSLSGSGAGPNAASASQFVRAEMLSSGYLIRPCDGGGSIIHIVDHLNLEAWSVPDVLRPLYESSKVVAQKMTISALRYIRQLAQESNGEVVYGLGRQPAVLRTFSQRLSRGFNDAVNGFGDDGWSTMHCDGAEDIIVAINSTKHLTNISNSV	not failed
MACFSDLSKECDMEGCRNHDFLPYKCEYCKLIFCEFHRNAEEHLCSKLKDMELNTVVLCEYCGIVLPDKKEDIQNHLIYKCLYKKKTKSILMCNKRDCKKVLNGINNYICKKCRKSFCLPHRYSDVHNCIKSDEEKSFFKSNIKKNKYILKVTTDGFINTTTHFFNSHTYIVC	failed
MPSSSLDISSALMIISLCALIDILSPGVLTVTAYLLLTQPNQLSSRLFVFLFITQLGYFITGLLLYFGGNSLLKRIEQLSQFDFINWFYILLGAVLVLISFSKPKETAKKRLISFIPKNTTIKGMIILGIIVFLIEFVTALPYFYSIFLMNHQTIETTPAILIIIGYNLVMVLPSLLLLGVNIIFKERLQQFLIKIRSKLNEAPISSLLVATGVIGAVFFNIGLRGILN	failed
MSSEKERKKKIFFQRILTVVFLGTFFYSVYELGDIFMDYYENRKVMAEAQNIYEKSPMEEQSQDGEVRKQFKALQQINQEIVGWITMDDTQINYPIVQAKDNDYYLFRNYKGEDMRAGSIFMDYRNDVKSQNRNTILYGHRMKDGSMFGSLKKMLDEEFFMSHRKLYYDTLFEGYDLEVFSVYTTTTDFYYIETDFSSDTEYTSFLEKIQEKSLYKTDTTVTAGDQIVTLSTCDYALDPEAGRLVVHAKLVKRQ	not failed
MAKGNKIPLTFHTYQDAATGTEVVRLTPPDVICHRNYFYQKCFFNDGSKLLFGAAFDGPWNYYLLDLKEQNATQLTEGKGDNTFGGFLSPNDDALYYVKNTRNLMRVDLTTLEEKTIYQVPDDWVGYGTWVANSDCTKMVGIEIKKEDWKPLTDWKKFQEFYFTNPCCRLIRVDLVTGEAETILQENQWLGHPIYRPGDDNTVAFCHEGPHDLVDARMWFINEDGTNMRKVKEHAEGESCTHEFWVPDGSAMIYVSYLKDDTNRYIRSIDPVTLEDRQLRVMPPCSHLMSNYDGTLLVGDGSDAPVDVQDDGGYKIENDPFLYVFNLKTGKEHRIAQHNTSWEVLEGDRQVTHPHPSFTPDNKQVLFTSDVDGKPALYLAKVPDSVWNLEHHHHHH	not failed
MTQKVALIGFGGVAQGFIQILRERGEELPEHIQVVSITDWRRGAVHDPNGLDLDFIAKIIETDGTFEHYPERSGVIKGWNSFETIQQTNADTIVEVTFTDVLTGQPAIDHCKEALRLGKHVVTTNKGPIAVAYQELKELADANGVQLLYEGTVMSGTPALRLPEHTLIGNNIQEVKGILNGTTNYILTEMERGKTFEQALQDAQTLGYAEADPTSDVEGYDVLYKVVILANVMMGIPLKPSDVERVGISHLTPRDIKDAHSAGERWKLIGRVKKEGERTMATVRPERLPLTDPLANINGAINAITYECDISGPITLIGAGAGVKETGFALLIDLLHVNRLGE	failed
MDLVVITETTIPTKITHVNKKSSDELLRKFADPDDVDESSKSTKRRKKSAKSSSREKGVDIESNTSGLVERKRLLLAPASKRRSLFIRQLASGKSHLRNKSLVRTIGKTWRKTMEGASRVFIEKHYNRHRRLTNDVV	failed
MLRNNLGNSSDSKNEDGSVFSQTEHNIVATYLIMAGMISIISNIIVLGIFIKYKELRTPTNAIIINLAVTDIGVSSIGYPMSAASDLYGSWKFGYAGCQVYAGLNIFFGMASIGLLTVVAVDRYLTICLPDVGRRMTTNTYIGLILGAWINGLFWALMPIIGWASYAPDPTGATCTINWRKNDRSFVSYTMTVIAINFIVPLTVMFYCYYHVTLSIKHHTTSDCTESLNRDWSDQIDVTKMSVIMICMFLVAWSPYSIVCLWASFGDPKKIPPPMAIIAPLFAKSSTFYNPCIYVVANKKFRRAMLAMFKCQTHQTMPVTSILPMDVSQNPLASGRI	failed
MSLNYKNYTVMLVDDEQPILNSLKRLIKRLGCNIITFTSPLDALEALKGTSVQLVISDMRMPEMGGEVFLEQVAKSYPDIERVVISGYADAQATIDAVNRGKISRFLLKPWEDEDVFKVVEKGLQLAFLREENLRLQEETEAKNKQEGHHHHHH	not failed
MLDPYRRYRHARLIHAVRVALGLIATILLTTGLNLPHGEWASVTMLVVIGGLQHHGNIGKKAAERAIGTLVGAGVGLVLVVQQAYFGHPWLTYLGMSVVCGYFSYHAIGKGGYTALLAAITVFIVAGHGDNQVSDGLWRAVDILIGIALALAFSFAIPLYAVYSWRYNLASALRDCAQLYGRIIKGQSVTDDEHLKLLGRVNSAMLQLRSLMPSVSKEVRISMTELDAIQRNLRMCISTLEILGNTRPDASDPQAMAQMQLALKAEHRQIRVQLIGMARALQSGVTQRLEKSVEGHPENALEAPVYSALDGYRLLTRQLAATLGEMHQRLAKSARHWKI	failed
MLNAKTSFALLMAVCLIATGVTGYLLGGINPELIQAWLKAAGIWAPVTYVAVYVVATILILPSTALNLTGGAIFGPWMGTFWTSVGAIIAAIAAFIFARTVGREIVAQRLAGRWQAIDAEVRQGAVFYMFAIRLMPILPYGLVNFAAGLTSISFKDYLIGTALGTVPGILPFVLLGSSGLKAIRTGEVLPLVGALALIGMLVGGSTWYRRRRSFPTRKKP	failed
MSKTANFLSLRSNPLPPIFSSTGNSPFLRASSALNLPTTASKPFHSWIRASSRRRLVLGGFGGASLWMNNNMSGKFGGKSFIASARQTNPSPVEQALNKVDWPETFPFKEEDFQRYDESSDSTFYEAPRFVTHIDDPAIAALTKYYSKVLPQSDTPGVSILDMCSSWVSHYPPGYRQERIVGMGMNEEELKRNPVLTEYIVQDLNLNSNLPFEDNSFQVITNVVSVDYLTKPLEVFKEMNRILKPGGLALMSFSNRCFFTKAISIWTSTGDADHALIVGSYFHYAGGFEAPQAVDISPNPGRSDPMYVVYSRKLPMV	failed
MGKGVAFFSGGKDGLYALYLAEEMGIEVPYLLVLKTSIGLSPHWENLDALKTLAKVMEREILTFDMRRGSKALAEFISSLDVDYLIAGDVYLEDHILWVKSLAEEANVKPLEPLWGRNTRKLAEEMLREGFNWAIIAVDKRKLGKEWLGYTFRSIEDLENFLRANPNVDPLGEVGEFHTVVLNSPLFALNFELKVESIEEDERYWWLRFELREVEKWNLNS	failed
MSEYRTVSAAAMLGTYEDFLELFEKGYEDKESVLKSNILYDVLRNNNDEARYKISMFLINKGADIKSRTKEGTTLFFPLFQGGGNDITGTTELCKIFLEKGADITALYKPYKIVVFKNIFNYFVDENEMIPLYKLIFSQSGLQLLIKDKWGLTALEFVKRCQKPIALKMMEDYIKKYNLKENS	not failed
MILQSTSLFCKYINNCRYINREIVATLKASPQGLARIKQARSDRGWSVDDFRWLELASEILGVCWQENGVLAAGISEGTWKRFLAGKQAINAEAFKAYCQVLGLNWEEVQEGGRTKERKDTGTSRQEKFLSSSHPHTDWGEAPDVSIFYGRSEELDTVKRWVTQENCRLITLLGMGGIGKTTLSVKLAQEIINSEKIYLSQSPEYIIWRSLRNAPPVEDILAELIQFLSGQQETNLSNHLQGRISLLLKNLRSSRCLIILDNAESILQAGDRNGRYRAGCEGYGQFLQCIAETSHQSCLILTSREKPQGLAKYEGDSLPVRSLPLTGLQEQEGRELFNVKGKFAASCDQWQVLISRYGGNPLALKIVASSIRDFFDGDVSQFLEVSQQGTFIFDDIRDLLDQQFQRLTTLEREIMYWLAINREPVTLAELQADFVANIPPRELLESLSSLQRRSLIEKSAGGFTQQPVVMEYVSNHLIEQVCEEMREWGLVRSRGAEEQRSRGEKIHTQYKLNAALPLTALSTPLFTTHALIKAQAKDYVRESQISLILQPLINQLITEFGSLENISNCLVHILSRLRGKSPQETGYAGGNVLNLLHHAQVDLSGYDFSGLTVWQAYLQGVNLHDVDFANSDLSCCVFTETLGNILSAAFSPEGQLLATCDTDCHVRVWEVKSGKLLLICRGHSNWVRFVVFSPDGEILASCGADENVKLWSVRDGVCIKTLTGHEHEVFSVAFHPDGETLASASGDKTIKLWDIQDGTCLQTLTGHTDWVRCVAFSPDGNTLASSAADHTIKLWDVSQGKCLRTLKSHTGWVRSVAFSADGQTLASGSGDRTIKIWNYHTGECLKTYIGHTNSVYSIAYSPDSKILVSGSGDRTIKLWDCQTHICIKTLHGHTNEVCSVAFSPDGQTLACVSLDQSVRLWNCRTGQCLKAWYGNTDWALPVAFSPDRQILASGSNDKTVKLWDWQTGKYISSLEGHTDFIYGIAFSPDSQTLASASTDSSVRLWNISTGQCFQILLEHTDWVYAVVFHPQGKIIATGSADCTVKLWNISTGQCLKTLSEHSDKILGMAWSPDGQLLASASADQSVRLWDCCTGRCVGILRGHSNRVYSAIFSPNGEIIATCSTDQTVKIWDWQQGKCLKTLTGHTNWVFDIAFSPDGKILASASHDQTVRIWDVNTGKCHHICIGHTHLVSSVAFSPDGEVVASGSQDQTVRIWNVKTGECLQILRAKRLYEGMNITGVTGLTKATIFTLQALGALR	failed
MKTLTTPAPTKSASFREGVFDSLPIVIGYMPVAFAFGMNAVKLGFTPLEGIFLSCIIYAGASQFVITALLSAGMSIWVAALTVMAMDIRHVLYGPALRHRIVQQLPTRKTALWAFGLTDEVFAAAATRLAKDNRRWSENWMIGVSLLAWLSWVLGTVIGAVFGNGPLDNYPAVEAALSFMLPALFLSFLLASFKRKQSLVVACALGGALLGLLLSSIPAAILLGILSGCLASLVNSATPQVNA	failed
MSGISSLGGRVGVTILEILIFSAGLLLLIKGSDIFVEAATRIAEAFKVSEFLIALVLASVATTLPEVTVSAISSYRGNSGIAIGNAVGSALANIALILAISAMIMPLNVDKIASENSLIMVGVTFYAWLLMSNGEISRIEGLTLVLIYAAFLYYLYRKHVKLEEVEKKSRCNVTRDVLILFLSGGMVILGAELVVDSAVKIARAIGIPEVVIGVTLVSIGTSLPEFANSLTATLKKIPNVSVGNIIGADILDILMVIGIASMIRPIRVDPSIVKIVMPITLLVMIILTVSLFRNNKIGRKTAVTLLIIYSAFIYLLTQGKVYIPG	failed
